B1: bsAb19139D (bispecific antibody, V domains shown)
VH 1: QVQLVESGGGVVQPGRSLRLSCTASGFTFSSYAMYWVRQAPGKGLEWVSVIYYDGSYKYYADSVKGRFTISRDNSKNTLYLQMDSLRAEDTAVYYCASYNWNYWYFDFWGRGTLVTVSS
VH 2: QVQLVESGGGVVQPGGSLRLSCAASGFTFSTYDIHWVRQAPGKGLEWVAVISFDGSNRNYGDSVKGRFTISRDNSDNTLFLEMNNLRFEDTAVYYCAKEGYGVDFQHWGQGTLVTVSS
VL: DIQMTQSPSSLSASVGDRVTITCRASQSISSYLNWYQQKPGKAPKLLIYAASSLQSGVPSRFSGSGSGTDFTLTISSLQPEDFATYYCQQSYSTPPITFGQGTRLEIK
notes: two different heavy chains with a common light chain
B2: bsAb19141D (bispecific antibody, V domains shown)
VH 1: B1 VH 1
VH 2: EVQLVESGGGVVRPGGSLRLSCTASGFTFDDYGMSWVRQAPGKGLEWVSGINWNGGRTEYADAVKGRFIISRDNAKNSLYLQMNSLRAEDTALYFCARTELRWDYWGQGTLVTVSS
VL: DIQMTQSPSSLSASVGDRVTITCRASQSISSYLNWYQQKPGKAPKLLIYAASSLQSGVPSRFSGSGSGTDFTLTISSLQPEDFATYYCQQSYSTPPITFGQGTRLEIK
notes: common light chain
B3: bsAb19145D (bispecific antibody, V domains shown)
VH 1: B1 VH 1
VH 2: EVQLVESGGGLVQPGRSLRLSCAASGFTLDDFAMHWVRQAPGKGLEWVSGISWNSGNIGYADSVKGRFTISRDNARNSLYLQMNSLRAEDTALYYCTSGYYLYYAMDVWGQGTTVTVSS
VL: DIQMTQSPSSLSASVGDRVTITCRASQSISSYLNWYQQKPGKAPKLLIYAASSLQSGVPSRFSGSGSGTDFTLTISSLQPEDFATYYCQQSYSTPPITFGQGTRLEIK
notes: common light chain
B4: bsAb19148D (bispecific antibody, V domains shown)
VH 1: B1 VH 1
VH 2: QVQLVQSGTEVKKPGSSVKVSCKASGGTFSTYPINWVRQAPGQGLEWMGGIIPIFGTASYAQKFQGRVAITTDESTSTAYMELNSLRSEDTAVYYCARERPNWGSNDYWGQGTLVTVSS
VL: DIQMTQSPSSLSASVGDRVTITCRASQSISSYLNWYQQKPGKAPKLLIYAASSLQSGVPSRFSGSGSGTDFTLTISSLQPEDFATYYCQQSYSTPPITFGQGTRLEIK
notes: common light chain
B5: bsAb19144D (bispecific antibody, V domains shown)
VH 1: B1 VH 1
VH 2: QVQLVQSGAEVKKPGASVKVSCKASGYTFTSLGISWVRQAPGQGLEWMGWISAYSGNRDYAQKFQGRVTMTTDTSTSTAYMELRSLRSDDTAVYYCARSLRFDYWGQGTLVTVSS
VL: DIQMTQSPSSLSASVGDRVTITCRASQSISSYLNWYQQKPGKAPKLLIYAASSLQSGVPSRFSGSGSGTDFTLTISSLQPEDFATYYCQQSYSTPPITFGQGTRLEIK
notes: common light chain
B6: bsAb19142D (bispecific antibody, V domains shown)
VH 1: B1 VH 1
VH 2: EVQLVESGGGLVQPGGSLRLSCAASGLTFSSYEMNWVRQAPGKGLEWVSHISSAGSTKYYADSVKGRFTISRDNAKNSLFLQMNSLRAEDTAIYYCAGYNYAYYYFGVDVWGQGTTVTVSS
VL: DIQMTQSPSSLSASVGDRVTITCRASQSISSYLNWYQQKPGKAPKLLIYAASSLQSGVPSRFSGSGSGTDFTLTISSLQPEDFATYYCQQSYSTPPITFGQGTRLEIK
notes: common light chain
B7: bsAb19146D (bispecific antibody, V domains shown)
VH 1: B1 VH 1
VH 2: QVQLVQSGPEVKKPGSSVKVSCKASGGTIDRNEITWVRQAPGQGLEWMGVIIPILGEAHYERKFQGRLTITMDESTSTAYMELSNLRSEDTAVYYCARERAARGYLDYWGQGTLVTVSS
VL: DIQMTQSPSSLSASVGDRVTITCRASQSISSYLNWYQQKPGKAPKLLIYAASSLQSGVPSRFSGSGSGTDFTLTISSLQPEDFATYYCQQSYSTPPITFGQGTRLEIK
notes: common light chain
B8: bsAb19140D (bispecific antibody, V domains shown)
VH 1: B1 VH 1
VH 2: QVQLQESGPGLVKPSETLSLTCTVSGGSISNYYWTWIRQPPGKGLEWIGHISNSGTTNYNPSLKSRVTISVDTSKNQFSLKLTSVTAADTAVYYCARLPLGIAAVDTDYYYYFGMDVWGQGTTVTVSS
VL: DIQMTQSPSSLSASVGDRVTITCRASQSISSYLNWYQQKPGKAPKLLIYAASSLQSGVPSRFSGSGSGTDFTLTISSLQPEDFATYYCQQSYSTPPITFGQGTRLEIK
notes: common light chain
B9: bsAb19143D (bispecific antibody, V domains shown)
VH 1: B1 VH 1
VH 2: QLQLQESGPGLVKPSETLSLICTVSGGSISSNNYYWGWIRQPPGKGLEWIGNLYGSGSTYYNPSLKSRVTISVDTSKNQFSLKLSFVTAADTAVYHCARWDTNGGAFDIWGQGTMVTVSS
VL: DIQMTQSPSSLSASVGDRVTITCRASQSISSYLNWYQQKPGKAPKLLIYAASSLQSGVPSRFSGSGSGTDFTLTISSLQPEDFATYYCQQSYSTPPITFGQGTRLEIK
notes: common light chain
B10: bsAb19147D (bispecific antibody, V domains shown)
VH 1: B1 VH 1
VH 2: EVQLVESGGGLVQPGGSLRLSCTASGFTFSNYAIFWVRQAPGKGLEYVSGISNNGVTKYYADSVRDRFTISRDNSRNTVSIQMDSLRTEDMAVYYCARENWGSDDGFDIWGQGTMVTVSS
VL: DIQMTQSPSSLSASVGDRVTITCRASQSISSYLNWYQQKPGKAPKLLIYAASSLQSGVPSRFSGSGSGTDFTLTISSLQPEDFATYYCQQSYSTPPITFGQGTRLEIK
notes: common light chain

biological target: T1, Macaca Fascicularis LEPR extracellular domain expressed with a C-terminal myc-myc-hexahistidine tag (Macaca fascicularis, UniProt Q9MYL0 22-837 (rhesus entry)); assay: SPR Biacore 4000, bsAb captured by anti-human Fc, 25 C
T1 construct: Monomeric reagent; the whole entry is the construct with its tag; also called mfLEPR-MMH
T1 sequence (Q9MYL0 other isoform, or with tags, fused parts or gaps): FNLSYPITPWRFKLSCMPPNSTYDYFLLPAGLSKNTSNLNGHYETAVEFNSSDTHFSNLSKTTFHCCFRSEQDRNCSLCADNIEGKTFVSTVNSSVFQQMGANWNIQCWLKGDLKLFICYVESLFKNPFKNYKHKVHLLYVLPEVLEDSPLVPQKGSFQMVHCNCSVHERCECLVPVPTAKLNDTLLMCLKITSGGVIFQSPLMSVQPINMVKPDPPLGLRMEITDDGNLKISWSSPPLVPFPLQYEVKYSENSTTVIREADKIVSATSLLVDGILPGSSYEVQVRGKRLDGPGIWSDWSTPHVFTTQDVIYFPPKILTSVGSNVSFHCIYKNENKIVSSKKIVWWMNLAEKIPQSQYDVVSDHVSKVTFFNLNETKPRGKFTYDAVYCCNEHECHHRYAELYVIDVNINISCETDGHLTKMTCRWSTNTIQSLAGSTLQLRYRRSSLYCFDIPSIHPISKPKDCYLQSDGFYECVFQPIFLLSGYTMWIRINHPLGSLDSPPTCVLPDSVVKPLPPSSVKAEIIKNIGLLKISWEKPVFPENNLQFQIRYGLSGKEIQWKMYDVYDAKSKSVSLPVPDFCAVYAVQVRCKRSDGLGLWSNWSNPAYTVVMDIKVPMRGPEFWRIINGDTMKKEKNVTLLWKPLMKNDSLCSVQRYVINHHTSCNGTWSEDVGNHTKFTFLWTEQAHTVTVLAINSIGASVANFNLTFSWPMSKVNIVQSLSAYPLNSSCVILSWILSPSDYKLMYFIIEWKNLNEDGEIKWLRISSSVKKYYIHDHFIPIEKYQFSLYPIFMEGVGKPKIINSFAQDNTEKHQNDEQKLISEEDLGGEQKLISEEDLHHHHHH
Experimental: (§1) Equilibrium dissociation constants (KD values) for LEPR and GP130 binding to purified anti-LEPR/GP130 bispecific antibodies were determined using a real-time surface plasmon resonance biosensor using a Biacore 4000 instrument. All binding studies were performed in 10 mM HEPES, 150 mM NaCl, 3 mM EDTA, and 0.05% v/v Surfactant Tween-20, pH 7.4 (HBS-ET) running buffer at 25° C. and 37° C. The Biacore sensor surface was first derivatized by amine coupling with a monoclonal mouse anti-human Fc antibody (GE, #BR-1008-39) to capture anti-LEPR/GP130 bispecific antibodies. […] Different concentrations of LEPR or GP130 reagents were first prepared in HBS-ET running buffer (100 nM-3.7 nM; 3-fold serial dilution) and were injected over anti-human Fc captured anti-LEPR/GP130 bispecific antibody surface for 4 minutes at a flow rate of 30 μL/minute, while the dissociation of bispecific antibody bound LEPR or GP130 reagent was monitored for 10 minutes in HBS-ET running buffer. Kinetic association (kₐ) and dissociation (kd) rate constants were determined by fitting the real-time binding sensorgrams to a 1:1 binding model with mass transport limitation using Scrubber 2.0c curve-fitting software. Binding dissociation equilibrium constants (KD) and dissociative half-lives (t ½) were calculated from the kinetic rate constants as: […]

| 100 nM mfLEPR-MMH Bound (RU) | Kd | koff | kon | t½ | Binder |
| --- | --- | --- | --- | --- | --- |
| 103 RU | 2.93 nM | 0.000128 s⁻¹ | 43600 M⁻¹ s⁻¹ | 90 min | B1 |
| 110 RU | 2.86 nM | 0.000124 s⁻¹ | 43300 M⁻¹ s⁻¹ | 93 min | B2 |
| 102 RU | 2.75 nM | 0.000123 s⁻¹ | 44900 M⁻¹ s⁻¹ | 94 min | B3 |
| 107 RU | 2.88 nM | 0.000119 s⁻¹ | 41300 M⁻¹ s⁻¹ | 97 min | B4 |
| 114 RU | 3.02 nM | 0.000124 s⁻¹ | 41100 M⁻¹ s⁻¹ | 93 min | B5 |
| 112 RU | 2.74 nM | 0.000126 s⁻¹ | 45900 M⁻¹ s⁻¹ | 92 min | B6 |
| 107 RU | 2.63 nM | 0.000113 s⁻¹ | 42900 M⁻¹ s⁻¹ | 102 min | B7 |
| 112 RU | 2.69 nM | 0.000121 s⁻¹ | 45000 M⁻¹ s⁻¹ | 95 min | B8 |
| 111 RU | 3.04 nM | 0.000136 s⁻¹ | 44800 M⁻¹ s⁻¹ | 85 min | B9 |
| 107 RU | 2.8 nM | 0.000119 s⁻¹ | 42500 M⁻¹ s⁻¹ | 97 min | B10 |

biological target: T2, human LEPR extracellular domain expressed with a C-terminal myc-myc-hexahistidine tag (human, UniProt P48357 22-839); assay: as above
T2 construct: Monomeric reagent; the whole entry is the construct with its tag; also called hLEPR-MMH; hLEPR.mmh
T2 sequence (P48357 other isoform, or with tags, fused parts or gaps): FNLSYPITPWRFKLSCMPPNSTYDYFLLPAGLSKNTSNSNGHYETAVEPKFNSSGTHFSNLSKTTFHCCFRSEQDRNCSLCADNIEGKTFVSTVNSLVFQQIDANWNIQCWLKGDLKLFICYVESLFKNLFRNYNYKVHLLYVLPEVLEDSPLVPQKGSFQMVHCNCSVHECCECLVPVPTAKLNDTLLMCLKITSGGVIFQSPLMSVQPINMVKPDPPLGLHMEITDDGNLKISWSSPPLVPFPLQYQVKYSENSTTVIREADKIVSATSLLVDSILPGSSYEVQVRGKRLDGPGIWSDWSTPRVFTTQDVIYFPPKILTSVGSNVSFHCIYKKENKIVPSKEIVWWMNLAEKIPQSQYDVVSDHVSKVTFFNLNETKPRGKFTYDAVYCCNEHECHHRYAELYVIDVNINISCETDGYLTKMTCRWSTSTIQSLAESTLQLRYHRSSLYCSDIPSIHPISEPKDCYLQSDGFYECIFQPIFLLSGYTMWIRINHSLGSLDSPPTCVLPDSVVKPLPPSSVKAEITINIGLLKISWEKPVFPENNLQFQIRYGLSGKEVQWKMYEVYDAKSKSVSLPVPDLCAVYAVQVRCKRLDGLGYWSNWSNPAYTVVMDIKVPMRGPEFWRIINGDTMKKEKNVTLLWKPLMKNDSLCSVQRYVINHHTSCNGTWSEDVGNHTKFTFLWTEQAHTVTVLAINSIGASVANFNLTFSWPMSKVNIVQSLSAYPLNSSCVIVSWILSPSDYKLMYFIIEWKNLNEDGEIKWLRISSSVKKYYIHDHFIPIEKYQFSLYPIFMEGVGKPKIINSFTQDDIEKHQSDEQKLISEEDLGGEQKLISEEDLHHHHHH
Experimental: as §1

| 100 nM hLEPR-MMH Bound (RU) | Kd | koff | kon | t½ | Binder |
| --- | --- | --- | --- | --- | --- |
| 41 RU | 7.09 nM | 0.000171 s⁻¹ | 24100 M⁻¹ s⁻¹ | 68 min | B1 |
| 45 RU | 5.91 nM | 0.000151 s⁻¹ | 25400 M⁻¹ s⁻¹ | 77 min | B2 |
| 41 RU | 6.62 nM | 0.000165 s⁻¹ | 24900 M⁻¹ s⁻¹ | 70 min | B3 |
| 44 RU | 7.31 nM | 0.000172 s⁻¹ | 23600 M⁻¹ s⁻¹ | 67 min | B4 |
| 48 RU | 6.48 nM | 0.000159 s⁻¹ | 24600 M⁻¹ s⁻¹ | 73 min | B5 |
| 46 RU | 7.76 nM | 0.000175 s⁻¹ | 22500 M⁻¹ s⁻¹ | 66 min | B6 |
| 45 RU | 8.16 nM | 0.000179 s⁻¹ | 22000 M⁻¹ s⁻¹ | 64 min | B7 |
| 47 RU | 7.36 nM | 0.00018 s⁻¹ | 24500 M⁻¹ s⁻¹ | 64 min | B8 |
| 45 RU | 7.31 nM | 0.000182 s⁻¹ | 24900 M⁻¹ s⁻¹ | 64 min | B9 |
| 42 RU | 7.13 nM | 0.000162 s⁻¹ | 22700 M⁻¹ s⁻¹ | 71 min | B10 |

biological target: T1, Macaca Fascicularis LEPR extracellular …; assay: SPR Biacore 4000, bsAb captured by anti-human Fc, 37 C
Experimental: as §1

| 100 nM mfLEPR-MMH Bound (RU) | Kd | koff | kon | t½ | Binder |
| --- | --- | --- | --- | --- | --- |
| 163 RU | 5.42 nM | 0.000559 s⁻¹ | 103000 M⁻¹ s⁻¹ | 21 min | B1 |
| 173 RU | 5.05 nM | 0.000522 s⁻¹ | 103000 M⁻¹ s⁻¹ | 22 min | B2 |
| 162 RU | 5.48 nM | 0.000566 s⁻¹ | 103000 M⁻¹ s⁻¹ | 20 min | B3 |
| 163 RU | 6.17 nM | 0.000571 s⁻¹ | 92500 M⁻¹ s⁻¹ | 20 min | B4 |
| 178 RU | 5.22 nM | 0.000517 s⁻¹ | 99100 M⁻¹ s⁻¹ | 22 min | B5 |
| 172 RU | 5.57 nM | 0.000529 s⁻¹ | 94900 M⁻¹ s⁻¹ | 22 min | B6 |
| 164 RU | 5.68 nM | 0.000568 s⁻¹ | 100000 M⁻¹ s⁻¹ | 20 min | B7 |
| 175 RU | 5.6 nM | 0.000572 s⁻¹ | 102000 M⁻¹ s⁻¹ | 20 min | B8 |
| 171 RU | 5.74 nM | 0.000551 s⁻¹ | 95900 M⁻¹ s⁻¹ | 21 min | B9 |
| 163 RU | 5.64 nM | 0.000565 s⁻¹ | 100000 M⁻¹ s⁻¹ | 20 min | B10 |

biological target: T2, human LEPR extracellular domain …; assay: as above
Experimental: as §1

| 100 nM hLEPR-MMH Bound (RU) | Kd | koff | kon | t½ | Binder |
| --- | --- | --- | --- | --- | --- |
| 67 RU | 21.2 nM | 0.000762 s⁻¹ | 35800 M⁻¹ s⁻¹ | 15 min | B1 |
| 74 RU | 16.6 nM | 0.000589 s⁻¹ | 35400 M⁻¹ s⁻¹ | 20 min | B2 |
| 66 RU | 20.8 nM | 0.000805 s⁻¹ | 38600 M⁻¹ s⁻¹ | 14 min | B3 |
| 69 RU | 20.5 nM | 0.000798 s⁻¹ | 39000 M⁻¹ s⁻¹ | 14 min | B4 |
| 78 RU | 16.2 nM | 0.000597 s⁻¹ | 36800 M⁻¹ s⁻¹ | 19 min | B5 |
| 74 RU | 18.6 nM | 0.000633 s⁻¹ | 34000 M⁻¹ s⁻¹ | 18 min | B6 |
| 69 RU | 21.3 nM | 0.000825 s⁻¹ | 38700 M⁻¹ s⁻¹ | 14 min | B7 |
| 75 RU | 21.4 nM | 0.000818 s⁻¹ | 38200 M⁻¹ s⁻¹ | 14 min | B8 |
| 72 RU | 21.5 nM | 0.000763 s⁻¹ | 35500 M⁻¹ s⁻¹ | 15 min | B9 |
| 65 RU | 20.5 nM | 0.000791 s⁻¹ | 38500 M⁻¹ s⁻¹ | 15 min | B10 |
